Results taken from patent US20210292396A1.

Columns and labels:
Assay in all cases: cell-based or functional assay
[1] = target: Env of HIV isolate 3637.v5.c3 (clade C) (HIV)
[2] = target: Env of HIV isolate CAP210.E8 (clade C) (HIV)
[3] = target: Env of HIV isolate QH209.14M.A2 (clade A) (HIV)
[4] = target: Env of HIV isolate CNE53 (clade C in Table 7) (HIV)
[5] = target: HIV Env of isolate 16055-2.3 (HIV)
[6] = target: Env of HIV isolate ZA012.29 (clade C) (HIV)
[7] = target: Env of HIV isolate DU172.17 (clade C) (HIV)
[8] = target: HIV Env of isolate 0077.v1.c16 (HIV)
[9] = target: HIV Env of isolate X1632.S2.B10 (HIV)
[10] = target: Env of HIV isolate CNE8 (clade AE) (HIV)
[11] = target: HIV Env of isolate 26191-2.48 (HIV)
[12] = target: Env of HIV isolate BS208.B1 (clade A) (HIV)
[13] = target: HIV Env of isolate MW965.26 (HIV)
[14] = target: Env of HIV isolate BJOX002000.03.2 (clade BC) (HIV)
[15] = target: Env of HIV isolate 26191-2.48 (clade C) (HIV)
[16] = target: HIV Env of isolate TZBD.02 (HIV)
[17] = target: Env of HIV isolate X1193.c1 (clade G) (HIV)
[18] = target: Env of HIV isolate CNE56 (clade AE) (HIV)
[19] = target: HIV Env of isolate ZA012.29 (HIV)
[20] = target: Env of HIV isolate YU2.DG (clade B) (HIV)
[21] = target: Env of HIV isolate P0402.c2.11 (clade G) (HIV)
[22] = target: HIV Env of isolate UG024.2 (HIV)
[23] = target: HIV Env of isolate 00836-2.5 (HIV)
[24] = target: Env of HIV isolate 0260.v5.c36 (clade A) (HIV)
[25] = target: Env of HIV isolate C2101.c1 (clade AE) (HIV)
[26] = target: Env of HIV isolate X2088.c9 (clade G) (HIV)
[27] = target: Env of HIV isolate M02138 (clade AE) (HIV)
[28] = target: Env of HIV isolate CNE14 (clade B) (HIV)
[29] = target: Env of HIV isolate C1080.c3 (clade AE) (HIV)
[30] = target: Env of HIV isolate 286.36 (clade C) (HIV)
[31] = target: Env of HIV isolate C3347.c11 (clade AE) (HIV)
[32] = target: Env of HIV isolate CH117.4 (clade BC) (HIV)
[33] = target: Env of HIV isolate 0013095-2.11 (clade C) (HIV)
[34] = target: Env of HIV isolate Q769.h5 (clade A) (HIV)
[35] = target: Env of HIV isolate Q168.a2 (clade AD) (HIV)
[36] = target: HIV Env of isolate P1981.C5.3 (HIV)
[37] = target: HIV Env of isolate 231965.c01 (HIV)
[38] = target: Env of HIV isolate UG021.16 (clade D) (HIV)
[39] = target: Env of HIV isolate ZM53.12 (clade C) (HIV)
[40] = target: Env of HIV isolate WITO.33 (clade B) (HIV)
[41] = target: HIV Env of isolate 6631.v3.c10 (HIV)
[42] = target: Env of HIV isolate BL01.DG (clade B) (HIV)
[43] = target: Env of HIV isolate TH966.8 (clade AE) (HIV)
[44] = target: Env of HIV isolate Q259.17 (clade A) (HIV)
[45] = target: HIV Env of isolate CNE19 (HIV)
[46] = target: Env of HIV isolate 16055-2.3 (clade C) (HIV)
[47] = target: HIV Env of isolate ZM197.7 (HIV)
[48] = target: Env of HIV isolate MI369.A5 (clade A) (HIV)
[49] = target: Env of HIV isolate CNE12 (clade B) (HIV)
[50] = target: Env of HIV isolate CM244.ec1 (clade AE) (HIV)

B1: ePGT121.18.17 (ePGT121.18.H17 VH and ePGT121.17.L1 VL) (antibody, V domains shown)
VH: QMQLQESGPGLVKPGETLSLTCSVSGASISSSYWSWLRETPGKGLEWIGYTHHSGDTNYAPSLKSRVTIGLDPSKNQVSLSLTSVTAADTAVYYCARTLHGRRIYGVVAFNEYYTYFYWPTWGKGTQVTVSS
VL: SDISVAPGETVRITCGGESIGSRAVQWYQHRPGQAPRLIIYNNQDRPPGIPERFSGSPDIDFGTTATLTISNVEAGDEATYYCHIWDSRRPTNWELGPGTTLTVL
IC50, pseudovirus neutralization [1]: > 50 µg/mL | IC50, pseudovirus neutralization [2]: 0.124 µg/mL | IC50, pseudovirus neutralization [3]: > 50 µg/mL | IC50, pseudovirus neutralization [4]: 6 ng/mL | IC80, pseudovirus neutralization [5]: 0.207 µg/mL | IC50, pseudovirus neutralization [6]: 5 ng/mL | IC50, pseudovirus neutralization [7]: 7 ng/mL | IC80, pseudovirus neutralization [8]: > 50 µg/mL | IC80, pseudovirus neutralization [9]: > 50 µg/mL | IC50, pseudovirus neutralization [10]: > 50 µg/mL | IC80, pseudovirus neutralization [11]: 0.025 µg/mL | IC50, pseudovirus neutralization [12]: > 50 µg/mL | IC80, pseudovirus neutralization [13]: 11 ng/mL | IC50, pseudovirus neutralization [14]: 4 ng/mL | IC50, pseudovirus neutralization [15]: 11 ng/mL | IC80, pseudovirus neutralization [16]: 13 ng/mL | IC50, pseudovirus neutralization [17]: 5 ng/mL | IC50, pseudovirus neutralization [18]: > 50 µg/mL | IC80, pseudovirus neutralization [19]: 0.014 µg/mL | IC50, pseudovirus neutralization [20]: 11 ng/mL | IC50, pseudovirus neutralization [21]: 4 ng/mL | IC80, pseudovirus neutralization [22]: > 50 µg/mL | IC80, pseudovirus neutralization [23]: > 50 µg/mL | IC50, pseudovirus neutralization [24]: 9 ng/mL | IC50, pseudovirus neutralization [25]: > 50 µg/mL | IC50, pseudovirus neutralization [26]: 6 ng/mL | IC50, pseudovirus neutralization [27]: > 50 µg/mL | IC50, pseudovirus neutralization [28]: 3 ng/mL | IC50, pseudovirus neutralization [29]: > 50 µg/mL | IC50, pseudovirus neutralization [30]: 3 ng/mL | IC50, pseudovirus neutralization [31]: > 50 µg/mL | IC50, pseudovirus neutralization [32]: > 50 µg/mL | IC50, pseudovirus neutralization [33]: 1.68 µg/mL | IC50, pseudovirus neutralization [34]: > 50 µg/mL | IC50, pseudovirus neutralization [35]: 1.52 µg/mL | IC80, pseudovirus neutralization [36]: 5 ng/mL | IC80, pseudovirus neutralization [37]: > 50 µg/mL | IC50, pseudovirus neutralization [38]: 13 ng/mL | IC50, pseudovirus neutralization [39]: 0.015 µg/mL | IC50, pseudovirus neutralization [40]: 0.015 µg/mL | IC80, pseudovirus neutralization [41]: 0.269 µg/mL | IC50, pseudovirus neutralization [42]: 1.51 µg/mL | IC50, pseudovirus neutralization [43]: > 50 µg/mL | IC50, pseudovirus neutralization [44]: > 50 µg/mL | IC80, pseudovirus neutralization [45]: 0.014 µg/mL | IC50, pseudovirus neutralization [46]: 0.036 µg/mL | IC80, pseudovirus neutralization [47]: > 50 µg/mL | IC50, pseudovirus neutralization [48]: 8 ng/mL | IC50, pseudovirus neutralization [49]: 4 ng/mL | IC50, pseudovirus neutralization [50]: 7.23 µg/mL

B2: ePGT121.15 (ePGT121.15.H6 VH and ePGT121.15.L1 VL) (antibody, V domains shown)
VH: QMQLQESGPGLVKPGETLSLTCSVSGASISSSYWSWLRETPGKGLEWIGYTHHSGDTNYAPSLKSRVHLGLHPSKNQVSLSLTSVTAADTAVYYCARTLHGRRIYGVVAFNEFFTYFYWEVWGKGTQVTVSS
VL: SDISVAPGETVRISCGGESIGSRAVQWYQHRAGQAPKLIIYNNQDRPPGIPERFSGSPDIDFGTTATLTITNVEAGDEATYYCHIWDSRRPTNWVFGGGTTLTVL
IC50, pseudovirus neutralization [1]: > 50 µg/mL | IC50, pseudovirus neutralization [2]: 0.052 µg/mL | IC50, pseudovirus neutralization [3]: > 50 µg/mL | IC50, pseudovirus neutralization [4]: 7 ng/mL | IC80, pseudovirus neutralization [5]: 0.211 µg/mL | IC50, pseudovirus neutralization [6]: 4 ng/mL | IC50, pseudovirus neutralization [7]: 3 ng/mL | IC80, pseudovirus neutralization [8]: > 50 µg/mL | IC80, pseudovirus neutralization [9]: > 50 µg/mL | IC50, pseudovirus neutralization [10]: > 50 µg/mL | IC80, pseudovirus neutralization [11]: 0.015 µg/mL | IC50, pseudovirus neutralization [12]: > 50 µg/mL | IC80, pseudovirus neutralization [13]: 9 ng/mL | IC50, pseudovirus neutralization [14]: 3 ng/mL | IC50, pseudovirus neutralization [15]: 5 ng/mL | IC80, pseudovirus neutralization [16]: 7 ng/mL | IC50, pseudovirus neutralization [17]: 3 ng/mL | IC50, pseudovirus neutralization [18]: > 50 µg/mL | IC80, pseudovirus neutralization [19]: 0.012 µg/mL | IC50, pseudovirus neutralization [20]: 5 ng/mL | IC50, pseudovirus neutralization [21]: 4 ng/mL | IC80, pseudovirus neutralization [22]: 4.72 µg/mL | IC80, pseudovirus neutralization [23]: > 50 µg/mL | IC50, pseudovirus neutralization [24]: 4 ng/mL | IC50, pseudovirus neutralization [25]: > 50 µg/mL | IC50, pseudovirus neutralization [26]: 3 ng/mL | IC50, pseudovirus neutralization [27]: > 50 µg/mL | IC50, pseudovirus neutralization [28]: 2 ng/mL | IC50, pseudovirus neutralization [29]: > 50 µg/mL | IC50, pseudovirus neutralization [30]: 2 ng/mL | IC50, pseudovirus neutralization [31]: > 50 µg/mL | IC50, pseudovirus neutralization [32]: > 50 µg/mL | IC50, pseudovirus neutralization [33]: 3.01 µg/mL | IC50, pseudovirus neutralization [34]: > 50 µg/mL | IC50, pseudovirus neutralization [35]: 5.07 µg/mL | IC80, pseudovirus neutralization [36]: 5 ng/mL | IC80, pseudovirus neutralization [37]: > 50 µg/mL | IC50, pseudovirus neutralization [38]: 6 ng/mL | IC50, pseudovirus neutralization [39]: 0.008 µg/mL | IC50, pseudovirus neutralization [40]: 0.008 µg/mL | IC80, pseudovirus neutralization [41]: 0.065 µg/mL | IC50, pseudovirus neutralization [42]: 13.1 µg/mL | IC50, pseudovirus neutralization [43]: > 50 µg/mL | IC50, pseudovirus neutralization [44]: > 50 µg/mL | IC80, pseudovirus neutralization [45]: 0.03 µg/mL | IC50, pseudovirus neutralization [46]: 0.029 µg/mL | IC80, pseudovirus neutralization [47]: > 50 µg/mL | IC50, pseudovirus neutralization [48]: 4 ng/mL | IC50, pseudovirus neutralization [49]: 3 ng/mL | IC50, pseudovirus neutralization [50]: 7.02 µg/mL
